# “Also recorded” adds a separate entry of the source.
# B1: Abet0380-GL IgG1-TM: germlined Abet0380; VH SEQ ID NO: 524, VL SEQ ID NO: 533; human IgG1 triple mutant format (antibody, listed as Homo sapiens, V domains shown)
# VH: EVQLLESGGGLVQPGGSLRLSCAASMGNFNYQTMWWVRQAPGKGLEWVSVIGKTNENIAYADSVKGRFTISRDNSKNTLYLQMNSLRAEDTAVYYCAREWMDHSRPYYYYGMDVWGQGTLVTVSS
# VL: SYELTQPPSVSVSPGQTASITCSGHNLEDKFASWYQQKPGQSPVLVIYRDDKRPSGIPERFSASNSGHTATLTISGTQAMDEADYYCSSQDTVTRVFGGGTKLTVL
# modifications: human IgG1 triple mutant constant region; /note=“Abet0380-GL”
# notes: germlined Abet0380; human IgG1 triple mutant format
# Experiments:
# [1] = target: T1, Amyloid beta 1-42 peptide (Rattus norvegicus, UniProt P08592); experiment: Free Amyloid beta 1-42 peptide in rat CSF (immunoprecipitation + ELISA); type: in vivo; conditions: for reduction of free Amyloid beta 1-42 peptide in CSF vs vehicle control: rats, 168 h after second dose
# T1 construct: Measurement of free Amyloid beta 1-42 peptide in rat CSF; from tissue; host or cells: CSF and brain homogenate of Sprague-Dawley rats
# Method: Eight-week old male albino Harlan Sprague-Dawley rats (n=8-12) received a single dose of Abet0380-GL IgG1-TM antibody by intravenous injection with a dosing vehicle of 25 mM Histidine, 7% Sucrose, 0.02% p80 surfactant, pH 6.0 at 5 ml/kg. Dosing solutions were made just before dosing. Animals were anaesthetized at the time indicated and cerebrospinal fluid (CSF) was aspirated from the cistema magna. CSF samples were centrifuged for 10 minutes at approximately 3000× g at 4° C. within 20 minutes of sampling to remove cells or debris. Samples were then frozen on dry ice and stored at −70° C. for subsequent analysis.
# Measurement of free Amyloid beta 1-42 peptide in rat CSF was conducted using immunoprecipitation to remove Abet0380-GL bound Amyloid beta 1-42 peptide, followed by analysis by a commercial ELISA kit obtained from Invitrogen. Briefly, a solution of protein A beads (Dynabeads® Protein A; Invitrogen, UK; cat: 100-02D) was added to a 96 well non-skirted plate (polypropylene 0.2 ml; VWR International, UK; cat: 10732-4828) and washed twice with TBST (50 mM TBS; Sigma, UK; cat: T6664 plus 0.1% Tween20) using a magnet (DynaMag™ 96 side; Invitrogen, UK; cat: 123.31 D) to separate the beads from the solution. Thawed rat CSF samples (40 μl) were added to each well and incubated at […] with tilt rotation for 1 hour. The beads were then pelleted using the magnet and 30 μl of immunoprecipitated CSF samples were transferred to a 96 well plate from the ELISA kit (mouse Amyloid beta (1-42) colorimetric ELISA kit; Invitrogen, UK; cat: KMB3441) with 70 μl of the Standard Diluent Buffer already added (supplemented with protease inhibitor; Roche, UK; cat: 11836153001). Calibration standard samples were added to the plate in duplicate and the plate was incubated for 2 hours at room temperature with shaking. The plate was washed 4 times with 400 µl of wash buffer, 100 μl of the detection antibody solution was added to each well and the plate was incubated for 1 hour at room temperature with shaking. Again, the plate was washed 4 times with 400 μl of wash buffer, 100 μl of the secondary antibody working solution was added to each well and the plate was incubated for 30 minutes at room temperature with shaking. Finally, the plate was washed 4 times with 400 μl of wash buffer, 100 μl of stabilized Chromogen was added to each well and the plate was incubated for 30 minutes at room temperature in the dark. To stop the reaction, 100 μl of Stop Solution was added to each well and the plate was read within 2 hours at an absorbance of 450 nm. Single CSF samples were analyzed and data analysis was performed using Prism 4 (GraphPad, USA) with one-way ANOVA on log transformed data without adjustment for multiple comparisons.
# To further investigate the effect of the Abet0380-GL IgG1-TM antibody in vivo, rats were administered weekly doses of 0.25, 0.5, 1, 5 or 10 mg/kg over 14 days. Animals were euthanized 168 hours after the second dose to measure levels of free Amyloid beta 1-42 peptide in CSF as well as total Amyloid beta 1-42 or 1-40 peptides in brain tissue.
# The ability of antibody Abet0144-GL to sequester amyloid beta 1-42 was investigated in a PK-PD study in normal rats. Rats were intravenously administered Abet0144-GL (10 or 40 mg/kg) or vehicle weekly for 2 weeks (on days 0 and 7), and sacrificed a week after the 2nd dose. […] Free and total amyloid beta 1-42 levels were measured using assays described above.
# Amyloid plaques = experiment: In vitro immunohistochemistry on human Alzheimer's Disease brain sections
# From the text: Briefly, the lead antibodies were screened on human Alzheimer's Disease brain sections and Tg2576 mouse brain sections to identify anti-Amyloid beta 1-42 antibodies that bound to Amyloid plaques in vitro.
# In these experiments, human brain tissue was isolated from the frontal cortex of two individuals with severe Alzheimer's Disease (ApoE genotype 3/3, Braak stage 6 and ApoE genotype 4/3, Braak stage 5). As a control, equivalent tissue was isolated from one non-dementia individual (ApoE genotype 3/3, Braak stage 1). Mouse brain tissue was isolated from Tg2576 mice at an age of 15 months (2 mice) and 22 months (2 mice). Antibodies were tested at concentrations of 2, 5, 10 and 20 ug ml^−1.
# [2] = target: T2, human Amyloid beta 1-42 peptide (Homo sapiens, UniProt P05067); experiment: Surface Plasmon Resonance binding kinetics of IgGs (BIAcore T-100); conditions: IgG1-TM captured on protein G; 1:1 Langmuir fit
# T2 construct: biotinylated human Amyloid beta 1-42 peptide (rpeptide, USA; cat: A1117); purchased rPeptide, USA A1117; host or cells: synthetic peptide
# Method: Surface Plasmon Resonance was used to analyse the binding kinetics of the affinity-optimized IgGs (section 1.8) and their germlined counterparts (section 1.9). Briefly, the BIAcore T-100 (GE Healthcare, UK) biosensor instrument was used to assess the kinetic parameters of the interaction between each test IgG and synthetically-produced human Amyloid beta 1-42 peptide. These experiments were performed essentially as described by Karsson et al. (Karlsson et al., 1991).
# The affinity of binding between each test IgG and human Amyloid beta 1-42 was estimated using assays in which each antibody was non-covalently captured by a protein G surface that was itself amine linked to a proprietary CM5 chip. The chip surface was regenerated between cycles by paired 40 second injections of 10 mM Glycine pH 2.0 to remove ligand and bound antibody. The test antibody was then reapplied for each peptide injection.
# A series of dilutions of synthetic human Amyloid beta 1-42 peptide (0.063-1024 nM) were sequentially passed over the antibody surface for a sufficient amount of time to observe sensorgrams that could be fitted to an appropriate binding model with confidence. […]
# The validity of the data was assessed using the calculated Chi^2 value, with an acceptable value being under 2 RU^2. […]
# T1 sequence (P08592 672-713 limits assumed): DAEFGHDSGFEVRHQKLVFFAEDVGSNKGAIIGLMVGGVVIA
# T2 sequence (P05067 672-713): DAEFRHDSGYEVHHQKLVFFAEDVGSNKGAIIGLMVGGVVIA
molecule,measurement,setting,value
B1,effect on free Amyloid beta 1-42 in CSF,"[1]; Sprague-Dawley rats, 0.25-10 mg/kg weekly over 14 days",dose-dependent decrease; also recorded: dose-dependent reduction
same,reduction of free Amyloid beta 1-42 peptide in CSF vs vehicle control,"[1]; 0.25 mg/kg weekly over 14 days, not statistically significant",14%
same,reduction of free Amyloid beta 1-42 peptide in CSF vs vehicle control,[1]; 0.5 mg/kg weekly over 14 days,47%
same,reduction of free Amyloid beta 1-42 peptide in CSF vs vehicle control,[1]; 1 mg/kg weekly over 14 days,61%
same,plaque recognition score,"Amyloid plaques; human AD brain section, ApoE genotype 3/3, Braak stage 6, 10 μg/ml",3
same,core plaques (CP) staining score,Amyloid plaques; human AD brain sections,3
same,staining of diffuse plaques (DP) and cerebral amyloid angiopathy (CAA) plaques,"Amyloid plaques; relative to core plaques, Tg2576 and human AD brain sections",to a lesser extent
same,association rate constant (ka),[2],952000 M⁻¹ s⁻¹
same,dissociation rate constant (kd),[2],0.000307 s⁻¹

# — patent US20190262327A1, “COMBINATION OF A BACE INHIBITOR AND AN ANTIBODY OR ANTIGEN-BINDING FRAGMENT FOR THE TREATMENT OF A DISORDER ASSOCIATED WITH THE ACCUMULATION OF AMYLOID BETA” (ASTRAZENECA AB, priority 2016, published 2019)
